Km data for one substance are collected here from ChEMBL document CHEMBL5649167, “The SUV4-20 inhibitor A-196 verifies a role for epigenetics in genomic integrity” (Nat Chem Biol, 2017).

Data set [1] relates to Clc1cc2c(NC3CCCC3)nnc(-c3ccncc3)c2cc1Cl. To be noted: Homo sapiens; time 2.0 hrs.
Data set [2] has the same test system. To be noted: Homo sapiens; time 2.0 hrs. This is another data set of the same source.

Sequence of Histone-lysine N-methyltransferase KMT5B (Homo sapiens), Q4FZB7 (Q4FZB7 whole entry): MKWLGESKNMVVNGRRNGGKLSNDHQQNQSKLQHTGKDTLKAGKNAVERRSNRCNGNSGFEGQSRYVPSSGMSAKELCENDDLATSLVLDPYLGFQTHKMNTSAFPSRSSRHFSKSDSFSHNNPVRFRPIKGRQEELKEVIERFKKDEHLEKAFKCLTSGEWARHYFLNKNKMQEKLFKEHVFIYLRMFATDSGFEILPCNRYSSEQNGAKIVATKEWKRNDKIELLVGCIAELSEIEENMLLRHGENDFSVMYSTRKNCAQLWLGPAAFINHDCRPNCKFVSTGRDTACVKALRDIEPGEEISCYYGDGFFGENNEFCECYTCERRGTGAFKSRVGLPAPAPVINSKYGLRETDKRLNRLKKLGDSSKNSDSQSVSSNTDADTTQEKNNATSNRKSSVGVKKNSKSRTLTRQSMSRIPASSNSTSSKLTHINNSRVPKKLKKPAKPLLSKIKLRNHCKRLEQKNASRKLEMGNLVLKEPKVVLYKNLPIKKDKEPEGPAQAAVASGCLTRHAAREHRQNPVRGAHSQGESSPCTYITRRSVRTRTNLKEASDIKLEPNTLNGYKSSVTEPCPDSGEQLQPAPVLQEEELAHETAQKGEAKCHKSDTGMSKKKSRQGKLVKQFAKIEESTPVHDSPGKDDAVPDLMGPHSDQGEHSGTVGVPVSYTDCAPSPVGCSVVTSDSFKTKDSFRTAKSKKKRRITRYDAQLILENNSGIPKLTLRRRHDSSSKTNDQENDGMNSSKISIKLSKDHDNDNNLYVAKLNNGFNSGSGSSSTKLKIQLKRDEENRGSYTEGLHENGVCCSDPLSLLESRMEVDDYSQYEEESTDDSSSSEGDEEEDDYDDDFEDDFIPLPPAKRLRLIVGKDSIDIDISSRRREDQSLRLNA

As for “Histone-lysine N-methyltransferase KMT5B (Homo sapiens), Q4FZB7”, the Km in data set [1] came to 0.0748 µM; in data set [2], 0.0278 µM.
